Test results: US20200339678A1 (RIGEL PHARMACEUTICALS, published 2020)

T1: mouse TIGIT-Fc (mouse, UniProt P86176 29-148)
T1 construct: extracellular domain; also called TIGIT-ECD; not shown: Fc
T1 sequence (looked up): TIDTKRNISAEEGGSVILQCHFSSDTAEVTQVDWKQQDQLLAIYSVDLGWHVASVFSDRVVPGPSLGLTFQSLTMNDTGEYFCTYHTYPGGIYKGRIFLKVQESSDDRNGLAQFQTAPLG

T2: biotinylated human TIGIT (human, UniProt Q495A1 22-141, biotinylated (EZ-Link NHS-PEG4-biotin kit))
T2 construct: extracellular domain; also called TIGIT-ECD
T2 sequence (looked up): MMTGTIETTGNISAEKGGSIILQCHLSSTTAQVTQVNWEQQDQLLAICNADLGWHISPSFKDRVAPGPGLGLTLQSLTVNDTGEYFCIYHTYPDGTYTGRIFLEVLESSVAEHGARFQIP

T3: His-tagged recombinant Human TIGIT (human, UniProt Q495A1 22-141)
T3 construct: coated antigen of the direct ELISA; not shown: His tag
T3 sequence (looked up): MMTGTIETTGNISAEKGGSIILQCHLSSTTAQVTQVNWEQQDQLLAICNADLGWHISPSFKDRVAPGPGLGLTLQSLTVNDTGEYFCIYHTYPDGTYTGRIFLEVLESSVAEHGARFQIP

T4: His-tagged recombinant Mouse TIGIT (mouse, UniProt P86176 29-148, limits assumed)
T4 construct: coated antigen of the direct ELISA; not shown: His tag
T4 sequence (looked up): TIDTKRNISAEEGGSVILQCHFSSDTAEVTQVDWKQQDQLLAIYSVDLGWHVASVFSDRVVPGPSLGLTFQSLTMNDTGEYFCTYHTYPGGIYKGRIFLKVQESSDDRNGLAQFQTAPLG

T5: human TIGIT fused to a beta galactosidase portion, on YTS cells (YTS_hTIGIT/hGrb2) (human, UniProt Q495A1 22-244)
T5 sequence (looked up): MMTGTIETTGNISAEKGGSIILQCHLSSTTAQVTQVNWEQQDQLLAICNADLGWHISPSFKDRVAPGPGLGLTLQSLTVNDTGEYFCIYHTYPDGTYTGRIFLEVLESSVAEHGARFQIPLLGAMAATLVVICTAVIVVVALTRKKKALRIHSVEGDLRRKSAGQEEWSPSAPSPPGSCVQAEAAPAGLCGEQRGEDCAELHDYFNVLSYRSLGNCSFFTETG


Columns and labels:
mouse TIGIT-Fc = molecular target: T1, mouse TIGIT-Fc; assay: comp. ELISA vs PVR
Procedure: (§1) Antibodies were serially diluted in a 10-point curve starting at 1 μM in 3-fold steps. […] Units are in microM.

biotinylated human TIGIT = molecular target: T2, biotinylated human TIGIT; assay: comp. ELISA vs PVR
Procedure: as §1

[1] = molecular target: T3, His-tagged recombinant Human TIGIT; assay: ELISA
Procedure: (§2) Binding affinities for antigen binding to anti-TIGIT monoclonal antibodies were determined by ELISA. […] Antibodies to be tested were diluted to 1 μM in PBS buffer containing 1% BSA and diluted 3-fold in a 10-point curve. […] Detection of the secondary antibody was determined using streptavidin-HRP and TMB reagent. All assays were performed at room temperature. Curve-fitting software was used to determine the EC₅₀ for each antibody.

[2] = molecular target: T4, His-tagged recombinant Mouse TIGIT; assay: ELISA
Procedure: as §2

[3] = molecular target: T5, human TIGIT fused to a beta …; assay: cell-based or functional assay

Binder	IC50 (mouse TIGIT-Fc)	IC50 (biotinylated human TIGIT)	EC50 [1]	EC50 [2]	YTS_hTIGI/hGrbs_EFC_Agonism, 221_WT [3]	YTS_hTIGI/hGrbs_EFC_Antagonism, 221_hPVR/ICAM [3]
Ab1 (Fab, V domains shown) VH: EVQLLESGGGLVQPGGSLRLSCAASGFTFSSYAMHWVRQAPGKGLEWVSGISSNGGSTSYADSVKGRFTISRDNSKNTLYLQMNSLRAEDTAVYYCARVPYSVWIDYWGQGTLVTVSS VL: not shown	632 nM	89.9 nM	40.3 nM	181 nM		
Ab1i10 (antibody, V domains shown, mIgG2a of Ab1, V99A) VH: EVQLLESGGGLVQPGGSLRLSCAASGFTFSSYAMHWVRQAPGKGLEWVSGISSNGGSTSYADSVKGRFTISRDNSKNTLYLQMNSLRAEDTAVYYCARVPYSAWIDYWGQGTLVTVSS VL: not shown	488 nM	5.8 nM	3.9 nM	15.1 nM		
Ab1i12 (antibody, V domains shown, mIgG2a of Ab1, Y97A) VH: EVQLLESGGGLVQPGGSLRLSCAASGFTFSSYAMHWVRQAPGKGLEWVSGISSNGGSTSYADSVKGRFTISRDNSKNTLYLQMNSLRAEDTAVYYCARVPASVWIDYWGQGTLVTVSS VL: not shown	> 1000 nM	> 1000 nM				
Ab1i11 (antibody, V domains shown, mIgG2a of Ab1, W100A) VH: EVQLLESGGGLVQPGGSLRLSCAASGFTFSSYAMHWVRQAPGKGLEWVSGISSNGGSTSYADSVKGRFTISRDNSKNTLYLQMNSLRAEDTAVYYCARVPYSVAIDYWGQGTLVTVSS VL: not shown	> 1000 nM	> 1000 nM				
Ab1i6 (antibody, V domains shown, mIgG2a of Ab1, P96A) VH: EVQLLESGGGLVQPGGSLRLSCAASGFTFSSYAMHWVRQAPGKGLEWVSGISSNGGSTSYADSVKGRFTISRDNSKNTLYLQMNSLRAEDTAVYYCARVAYSVWIDYWGQGTLVTVSS VL: not shown	> 1000 nM	46.9 nM	29.4 nM			
Ab1i5 (antibody, V domains shown, mIgG2a of Ab1, I100aA) VH: EVQLLESGGGLVQPGGSLRLSCAASGFTFSSYAMHWVRQAPGKGLEWVSGISSNGGSTSYADSVKGRFTISRDNSKNTLYLQMNSLRAEDTAVYYCARVPYSVWADYWGQGTLVTVSS VL: not shown	13.3 nM	2.8 nM	8 nM	6.8 nM		
Ab16i1 (antibody, V domains shown) VH: EVQLLESGGGLVQPGGSLRLSCAASGFTFSSYSMHWVRQAPGKGLEWVAAIKSSGSSTSYADSVKGRFTISRDNSKNTLYLQMNSLRAEDTAVYYCARVPYDYWLDYWGQGTLVTVSS VL: not shown	0.4 nM	2.1 nM	2.1 nM	0.5 nM		
Ab16i2 (antibody, V domains shown) VH: EVQLLESGGGLVQPGGSLRLSCAASGFTFSSYSMHWVRQAPGKGLEWVAAIKSSGSSTSYADSVKGRFTISRDNSKNTLYLQMNSLRAEDTAVYYCARVPYDYWLDYWGQGTLVTVSS VL: not shown	4.1 nM	84.6 nM	6.4 nM	0.5 nM		
Ab17i1 (antibody, V domains shown, hIgG1 of Ab17) VH: EVQLLESGGGLVQPGGSLRLSCAASGFTFSSYAMSWVRQAPGKGLEWVASIKSSGGNTYYADSVKGRFTISRDNSKNTLYLQMNSLRAEDTAVYYCAREPYSYWMDYWGQGTLVTVSS VL: not shown	1.1 nM			0.1 nM	0.0012 µM	> 1 µM
Ab1i8 (antibody, V domains shown, mIgG2a of Ab1, S98G) VH: EVQLLESGGGLVQPGGSLRLSCAASGFTFSSYAMHWVRQAPGKGLEWVSGISSNGGSTSYADSVKGRFTISRDNSKNTLYLQMNSLRAEDTAVYYCARVPYGVWIDYWGQGTLVTVSS VL: not shown	99.3 nM	5.8 nM	1.7 nM	26.3 nM		
Ab53i7 (antibody, V domains shown, hIgG1 of Ab53, S52aY) VH: EVQLLESGGGLVQPGGSLRLSCAASGFTFSSYSMHWVRQAPGKGLEWVASIKYSSSNKYYADSVKGRFTISRDNSKNTLYLQMNSLRAEDTAVYYCARGPYDVWLDYWGQGTLVTVSS VL: not shown		36.3 nM	3.2 nM		0.0681 µM	1.93 µM
Ab40 (Fab, V domains shown) VH: EVQLLESGGGLVQPGGSLRLSCAASGFTFSSYGMNWVRQAPGKGLEWVAGIKYSSGNKYYADSVKGRFTISRDNSKNTLYLQMNSLRAEDTAVYYCARGPYDVWMDYWGQGTLVTVSS VL: not shown	> 1000 nM	3.8 nM	0.3 nM		> 1 µM	0.0023 µM
Ab40i1 (antibody, V domains shown, hIgG1 of Ab40) VH: EVQLLESGGGLVQPGGSLRLSCAASGFTFSSYGMNWVRQAPGKGLEWVAGIKYSSGNKYYADSVKGRFTISRDNSKNTLYLQMNSLRAEDTAVYYCARGPYDVWMDYWGQGTLVTVSS VL: not shown	> 1000 nM	1.3 nM	0.3 nM		> 1 µM	0.0002 µM
Ab40i2 (antibody, V domains shown, hIgG1 of Ab40, G33S) VH: EVQLLESGGGLVQPGGSLRLSCAASGFTFSSYSMNWVRQAPGKGLEWVAGIKYSSGNKYYADSVKGRFTISRDNSKNTLYLQMNSLRAEDTAVYYCARGPYDVWMDYWGQGTLVTVSS VL: not shown	> 1000 nM	2 nM	0.2 nM		0.0011 µM	0.186 µM
Ab17i2 (antibody, V domains shown, mIgG2a of Ab17) VH: EVQLLESGGGLVQPGGSLRLSCAASGFTFSSYAMSWVRQAPGKGLEWVASIKSSGGNTYYADSVKGRFTISRDNSKNTLYLQMNSLRAEDTAVYYCAREPYSYWMDYWGQGTLVTVSS VL: not shown	1.6 nM			0.2 nM		> 1 µM
Ab53i8 (antibody, V domains shown, mIgG2a of Ab53, S52aY) VH: EVQLLESGGGLVQPGGSLRLSCAASGFTFSSYSMHWVRQAPGKGLEWVASIKYSSSNKYYADSVKGRFTISRDNSKNTLYLQMNSLRAEDTAVYYCARGPYDVWLDYWGQGTLVTVSS VL: not shown		12.5 nM	1.7 nM		0.02 µM	> 1 µM
Ab1i7 (antibody, V domains shown, mIgG2a of Ab1, S98A) VH: EVQLLESGGGLVQPGGSLRLSCAASGFTFSSYAMHWVRQAPGKGLEWVSGISSNGGSTSYADSVKGRFTISRDNSKNTLYLQMNSLRAEDTAVYYCARVPYAVWIDYWGQGTLVTVSS VL: not shown	183 nM	16.1 nM	3.8 nM	72.9 nM		
Ab48 (Fab, V domains shown) VH: EVQLLESGGGLVQPGGSLRLSCAASGFTFSSYSMNWVRQAPGKGLEWVANIKSSGSSTSYADSVKGRFTISRDNSKNTLYLQMNSLRAEDTAVYYCARGPYDVWMDYWGQGTLVTVSS VL: not shown	64.7 nM	111 nM	13.8 nM	41.8 nM		
Ab53i5 (antibody, V domains shown) VH: EVQLLESGGGLVQPGGSLRLSCAASGFTFSSYGMHWVRQAPGKGLEWVASIKYSSSNKYYADSVKGRFTISRDNSKNTLYLQMNSLRAEDTAVYYCARGPYDVWLDYWGQGTLVTVSS VL: not shown	> 1000 nM	2.1 nM	0.2 nM		0.0057 µM	0.526 µM
Ab1i9 (antibody, V domains shown, mIgG2a of Ab1, V95A) VH: EVQLLESGGGLVQPGGSLRLSCAASGFTFSSYAMHWVRQAPGKGLEWVSGISSNGGSTSYADSVKGRFTISRDNSKNTLYLQMNSLRAEDTAVYYCARAPYSVWIDYWGQGTLVTVSS VL: not shown	9 nM	2.3 nM	0.6 nM	2.3 nM		
